Test results published in patent US20250376528A1.

Biological target: human IL-10 receptor (hIL-10R α and β chains) on HEK-Blue IL-10 reporter cells (human) (UniProt Q13651)
Experiment: cell-based or functional assay

Sequence of human IL-10 receptor (hIL-10R α and β chains) on HEK-Blue IL-10 reporter cells (human) (Q13651 22-578, chain 1 of 2): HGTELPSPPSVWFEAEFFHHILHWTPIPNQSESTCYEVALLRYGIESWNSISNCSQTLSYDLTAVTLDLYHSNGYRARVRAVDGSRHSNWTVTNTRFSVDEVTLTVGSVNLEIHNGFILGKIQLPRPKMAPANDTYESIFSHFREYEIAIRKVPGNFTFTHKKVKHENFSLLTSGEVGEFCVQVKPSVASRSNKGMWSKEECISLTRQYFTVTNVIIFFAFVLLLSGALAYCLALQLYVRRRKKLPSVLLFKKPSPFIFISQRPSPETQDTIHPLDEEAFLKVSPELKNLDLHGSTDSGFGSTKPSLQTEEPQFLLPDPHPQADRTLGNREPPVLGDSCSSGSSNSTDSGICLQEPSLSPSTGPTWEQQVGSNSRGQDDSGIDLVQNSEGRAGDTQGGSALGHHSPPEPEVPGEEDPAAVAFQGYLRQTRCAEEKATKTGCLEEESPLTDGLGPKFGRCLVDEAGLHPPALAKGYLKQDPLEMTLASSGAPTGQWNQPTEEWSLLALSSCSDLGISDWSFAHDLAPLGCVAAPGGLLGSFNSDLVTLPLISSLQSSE
Sequence of human IL-10 receptor (hIL-10R α and β chains) on HEK-Blue IL-10 reporter cells (human) (Q08334 20-325, chain 2 of 2, further chain): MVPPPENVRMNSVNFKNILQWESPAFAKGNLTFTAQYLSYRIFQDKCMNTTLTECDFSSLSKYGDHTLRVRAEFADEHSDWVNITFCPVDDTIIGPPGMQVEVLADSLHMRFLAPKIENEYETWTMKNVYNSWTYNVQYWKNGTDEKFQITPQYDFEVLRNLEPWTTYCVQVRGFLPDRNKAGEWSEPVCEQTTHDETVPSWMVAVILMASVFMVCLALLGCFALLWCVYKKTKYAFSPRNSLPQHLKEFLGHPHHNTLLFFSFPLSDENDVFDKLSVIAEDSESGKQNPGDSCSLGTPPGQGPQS

Abs 630 (25 nM): 2.08 Abs 630
Abs 630 (100 nM): 2.04 Abs 630
Substance: Recombinant Animal-Free Human IL-10 (Shenandoah Biotechnology, Catalog No. 100-83AF) (from UniProt P22301 19-178) (ligand)
